Laboratory results taken from publication PMC5317049, “Ex vivo^18O-labeling mass spectrometry identifies a peripheral amyloid β clearance pathway” (Molecular Neurodegeneration, 2017).

B1: ponezumab: C-terminal (Aβ X-40) antibody ponezumab (antibody, chains of the INN, looked up, V domains shown)
VH: QVQLVQSGAEVKKPGASVKVSCKASGYYTEAYYIHWVRQAPGQGLEWMGRIDPATGNTKYAPRLQDRVTMTRDTSTSTVYMELSSLRSEDTAVYYCASLYSLPVYWGQGTTVTVSS
VL: DVVMTQSPLSLPVTLGQPASISCKSSQSLLYSDAKTYLNWFQQRPGQSPRRLIYQISRLDPGVPDRFSGSGSGTDFTLKISRVEAEDVGVYYCLQGTHYPVLFGQGTRLEIK

How the values were obtained:
[1] = system: IDE; details: EDTA in plasma collection tubes; cited from earlier work
[2] = target: T1, Aβ1-40 (Homo sapiens, UniProt P05067); test: Effect of antibodies on Aβ degradation in 5% serum; assay type: biochemical; details: 4 μg recombinant antibody in 1 ml PBS with 0.016 μM labeled Aβ1-40, 1 h pre-incubation, then 5% serum overnight, room temperature; IP-MALDI MS
T1 construct: To 1 ml PBS containing isotopic labeled Aβ1-40 (0.016 μM) 4 μg of each of the recombinant antibodies; purchased Anaspec, Inc
Experimental: The antibodies were expressed and purified as previously described. Each sample was spiked with serum (5%, end concentration) followed by incubation overnight at room temperature. The samples were placed in a 100 °C heating block for five minutes to disrupt potential antibody/Aβ complexes, and subsequently centrifuged for 10 min at 4 °C (31.000 x g). The supernatants were transferred to new tubes and Aβ peptides were immunoprecipitated and analyzed by mass spectrometry as described above.

[3] = system: plasma Aβ; details: anti-amyloid treatment; 45 (solanezumab), 9, 22 (ponezumab), 7; cited from earlier work
From the text: To explore this hypothesis, we tested the effect of recombinant versions of the antibodies solanezumab, ba ...

[4] = system: Aβ; details: than solanezumab; cited from earlier work
[5] = target: T2, insulin-degrading enzyme (IDE) (Homo sapiens, UniProt P14735); test: Inhibition of IDE activity by insulin; assay type: biochemical; details: increasing insulin (0.1, 1 or 10 μM), PBS spiked with Aβ1-40 Arg13C15N, overnight, room temperature; IP-MALDI MS (Fig. 5c)
T2 construct: purchased Sigma
Experimental: […] The samples were incubated overnight at room temperature. Immunoprecipitation and mass spectrometry were conducted as described above.

| Molecule | effect on proteolytic degradation of Aβ1-40 in serum [2] | increase of plasma Aβ concentration compared to physiological levels [3] | also measured |
| --- | --- | --- | --- |
| O=C(O)CN(CCN(CC(=O)O)CC(=O)O)CC(=O)O [EDTA] | – | – | effect on IDE proteolytic activity [1]: inhibit IDE proteolytic activity |
| solanezumab: recombinant version of the mid-domain anti-Aβ antibody solanezumab | effectively abrogated | up to thousand-fold | – |
| crenezumab: recombinant anti-Aβ antibody crenezumab | did not block the degradation | – | affinity for Aβ compared with solanezumab [4]: much lower affinity |
| insulin: insulin added as competing substrate to inhibit IDE-mediated proteolytic activity | – | – | inhibition of IDE-mediated proteolysis of Aβ1-40 Arg13C15N [5]: abundance of Aβ1-20 decreased with increasing insulin concentration |
| B1 | – | up to thousand-fold | – |
